Laboratory results published in publication PMC3030945 (The Journal of Membrane Biology, 2010).

How the values were obtained:
[1] = type: physicochemical; settings: all lipid mixtures; van't Hoff analysis of CD partitioning data
[2] = Isothermal titration calorimetry: enthalpy of melittin partitioning into LUVs; type: physicochemical; settings: for −TΔS: from ΔG = ΔH − TΔS, ± joint confidence limits
[3] = CD titration of melittin with SUVs: free energy of partitioning; type: physicochemical; settings: 5 mM lipid, estimated from measured partitioning free energy ΔG
[4] = Isothermal titration calorimetry: enthalpy of melittin partitioning into SUVs; type: physicochemical; settings: POPC SUVs, 25°C; ITC, 10 μl of 100 μM melittin into 5 mM lipid
[5] = CD spectroscopy: helical content of membrane-bound melittin; type: physicochemical; settings: for peptide helical fraction f α: 25°C, CD molar ellipticity at 222 nm
[6] = Hydrophobic-effect free energy ΔG hϕ calculated from measured heat capacity; type: physicochemical; settings: for hydrophobic free energy ΔG hϕ: calculated from measured heat capacity
[7] = cited from earlier work
[8] = various methods, mole-fraction partition coefficients, ref Beschiaschvili and Baeuerle 1991, Kuchinka and Seelig 1989, Ladokhin et al. 2000, Ladokhin and White 1999, Schwarz and Beschiaschvili 1989, Vogel 1981; cited from earlier work

melittin
heat capacity change [1]: approximately −0.5 kcal mol^−1 K^−1 | change of heat capacity ([2]; LUVs at different lipid content, slope of enthalpy vs temperature (Fig. 4b)): about −0.5 kcal/molK | −TΔS ([2]; POPC 50%:POPG 50% LUVs, 25°C): −2.8 (±1) kcal mol^−1 | −TΔS ([2]; POPC 50%:POPG 50% LUVs, 40°C): 3.08 (±1) kcal mol^−1 | −TΔS ([2]; POPC 50%:POPG 50% LUVs, 50°C): 8.73 (±1.1) kcal mol^−1 | −TΔS ([2]; POPC 50%:POPG 50% LUVs, 60°C): 16.99 (±1.5) kcal mol^−1 | −TΔS ([2]; POPC 75%:POPG 25% LUVs, 25°C): −4.42 (±0.6) kcal mol^−1 | −TΔS ([2]; POPC 75%:POPG 25% LUVs, 40°C): 3.24 (±0.8) kcal mol^−1 | −TΔS ([2]; POPC 75%:POPG 25% LUVs, 50°C): 8.32 (±0.4) kcal mol^−1 | −TΔS ([2]; POPC 75%:POPG 25% LUVs, 60°C): 15.06 (±1.1) kcal mol^−1 | −TΔS ([2]; POPC 90%:POPG 10% LUVs, 25°C): −5.9 (±1.5) kcal mol^−1 | −TΔS ([2]; POPC 90%:POPG 10% LUVs, 40°C): −2.25 (±0.9) kcal mol^−1 | −TΔS ([2]; POPC 90%:POPG 10% LUVs, 50°C): 3.3 (±1) kcal mol^−1 | −TΔS ([2]; POPC 90%:POPG 10% LUVs, 60°C): 5.73 (±1.1) kcal mol^−1 | −TΔS ([2]; POPC 100%:POPG 0% LUVs, 40°C): −12.3 (±1.6) kcal mol^−1 | −TΔS ([2]; POPC 100%:POPG 0% LUVs, 50°C): −6.2 (±1.4) kcal mol^−1 | −TΔS ([2]; POPC 100%:POPG 0% LUVs, 60°C): −3.2 (±1.3) kcal mol^−1 | heat capacity associated with partitioning ([2]; all lipid mixtures (POPC:POPG 0–50% POPG), independent of lipid composition): about −0.5 kcal mol^−1 K^−1 | fraction of melittin bound [3]: 95% | enthalpy change, before corrections [4]: ≈ −10 kcal mol^−1 | fraction of peptide bound ([5]; POPC50:POPG50, 5°C, CD): ≈ 0.57 | peptide helical fraction f α ([5]; POPC50:POPG50 LUVs): 0.71 | peptide helical fraction f α ([5]; POPC75:POPG25 LUVs): 0.73 | peptide helical fraction f α ([5]; POPC90:POPG10 LUVs): 0.71 | peptide helical fraction f α ([5]; POPC LUVs, Luo and Baldwin formula): 0.71 | α-helical content ([5]; melittin bound to a lipid membrane at 25°C, CD): ~ 70% | helical fraction of peptide (or the fraction of peptide bound) ([5]; pure POPC, 5°C, CD): ≈ 0.57 | fraction of peptide bound ([5]; pure POPC, 60°C, CD): ≈ 0.63 | T h (temperature at which ΔH hϕ has a bulk-phase transfer value of 0) ([6]; POPC): 326 K | T s (temperature at which ΔS hϕ has a bulk-phase transfer value of 0) ([6]; POPC): 336 K | T h ([6]; POPC50:POPG50): 292 K | T s ([6]; POPC50:POPG50): 305 K | hydrophobic free energy ΔG hϕ ([6]; POPC50:POPG50, 25°C): −7.50 (±0.52) kcal mol^−1 | T h ([6]; POPC75:POPG25): 294 K | T s ([6]; POPC75:POPG25): 306 K | hydrophobic free energy ΔG hϕ ([6]; POPC75:POPG25, 25°C): −6.87 (±0.30) kcal mol^−1 | T h ([6]; POPC90:POPG10): 296 K | T s ([6]; POPC90:POPG10): 316 K | hydrophobic free energy ΔG hϕ ([6]; POPC90:POPG10, 25°C): −6.68 (±0.22) kcal mol^−1 | contribution of the hydrophobic effect to the total free energy ([6]; POPC, 25°C): approximately 79% | hydrophobic free energy ΔG hϕ ([6]; POPC, 25°C): −4.88 (±2.83) kcal mol^−1 | electrical valence (formal valence) ([7]; formal peptide charge as stated, no reference given): 5–6 | effective charge ([7]; literature value, ref Beschiaschvili and Baeuerle 1991): ≈ 2 | free energy of partitioning of unfolded melittin into the bilayer interface of POPC vesicles [8]: −6 to −7 kcal mol^−1
